From the nanobody polyreactivity screen of Harvey et al. (2022)

Experiment: yeast display, Sf9 membrane polyspecificity reagent, FACS + sequencing; frameworks hold sequencing errors
In short: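 In a synthetic yeast display library (Saccharomyces cerevisiae BJ5465), nanobody expression was induced with galactose for 36–48 hours. FACS gates were set low and high (top ~1%) using anti-HA fluorescence for expression and streptavidin fluorescence for binding of the Sf9 membrane reagent. Each polyreactivity label is drawn from the gate of origin.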

Sequence	polyreactivity (PSR sort gate)
QVQLVESGGGLVQAGGSLRLSCAASGITFRTYAMGWYRQAPGKERELVAAISSSGGSTYYADSVKGRFTISRDNAKNTVYLQMNSLKPADTAVYYCAAEWIADLSSPVWYDYWGQGTQVTVSS	high polyreactivity
QVQLVESGGGLVQAGGSLRLSCAASGITFRWNAMGWYRPAPGKARELVAAITYRGGSTHYADSVKGRFTISRDNGKNSVYIQMNSLKPEDTAVYYCAVRRWPRYRWSDYWVQGTQVTVSS	low polyreactivity
QVQLVESGGGLVQAGGSLRLSCAASGITFRYNAMGWYRQAPGKERQLVAGITGSGGRTYYADSVKGRFTISRDNAKNSVYLQMNSLKPEDTAVYYCAAYPPARRTMDYWGQGTQVTVSS	low polyreactivity
QVQLVESGGGLVQAGGSLRLSCAASGITFRYYAMGWDRQAPGKERELVAAINRGGDSTYYADSVKGRFTISRDNAKNTVYLQMNSLKPEDTAVYYCAASSYYRGTFYPSYYWGQGTQVTVSS	high polyreactivity
QVQLVESGGGLVQAGGSLRLSCAASGITFRYYAMGWYRQAPGKERELVAAISDGGSTNYADSVKGRFTISRDNAKNTVYLQMNSLKPEDTAVYYCDADYRYLFDYWGQGTQVTVSS	high polyreactivity
QVQLVESGGGLVQAGGSLRLSCAASGITFRYYAMGWYRQAPGKERELVAAISGSGGSTYYADSVKGRFTISRDNAKNTVYLQMNSLKPEDTAVNYCNVDKGYSRSLRLGYDYWGQGTEVTVSS	high polyreactivity
QVQLVESGGGLVQAGGSLRLSCAASGITFRYYAMGWYRQAPGKERELVAAISSTGGSTYYADSVKGRFTISRDNAKNTVYLQMNSLKPEDTAVYYCNADTTFYGYRTYRPENYWGQGTQVTVSS	high polyreactivity
QVQLVESGGGLVQAGGSLRLSCAASGITFRYYTMGWYRQAPGKERELVAAISRSGGSTYYADSVKGRFTISRDNAKNNVYLQMNSLKPEDTAVYYCAVDYTYDMDYWGQGTQVTVSS	high polyreactivity
QVQLVESGGGLVQAGGSLRLSCAASGITFSDYAMGWYRQAPGKEWELVAAISARGGSTYYADSVKGRFTISRDNAKNTVYLQMNSLKPEDTAVYYCAADKRTPYYSRAGMDYWGQGTQVTVSS	low polyreactivity
QVQLVESGGGLVQAGGSLRLSCAASGITFSGNAMGWYRQAPGKERELVAAITWRGDNTYYADSVKGRFTISRDNAKNTVYLQMNSLKPEDTAVYSCAAKSPLFGLTSYPGPDDSWGQGTQVTVSS	low polyreactivity
QVQLVESGGGLVQAGGSLRLSCAASGITFSGNTMGWYRQAPGKERELVAAISSGGSTYYADSVKGRFTISRDNAKNTVLLQMNSLKPEDTAVYYCNADIYYAPYDYWGQGTQVTVSS	low polyreactivity
QVQLVESGGGLVQAGGSLRLSCAASGITFSNYSMGWYRQAPGKERELVAAISKRGGSTYYADSVKGRFTISRDNAKNTVYLQMNSLKPEDTAVYYCAAAGVRVYVRSGLDYWGQGTQVTVSS	high polyreactivity
QVQLVESGGGLVQAGGSLRLSCAASGITFSQYAMGWYRQAPGTERELVAAISGSGGDTYYADSVKGRFTISRDNAKNTVYLQMNSLKPEDTAVYYCNADYESVYYEDYDYWGQGTQVTVSS	low polyreactivity
QVQLVESGGGLVQAGGSLRLSCAASGITFSRNAMGWYRQAPGKERELVAAINWTGGNTYYADSVKGRFTISRDNAKNTVYLQMNSLKPEDTAVYYCAADRRWFVWGLGYWGQGTQVTVSS	low polyreactivity
QVQLVESGGGLVQAGGSLRLSCAASGITFSRNAMGWYRQAPGNERELVATITSGCSTNYADSVKGRFTISRDNAKNNVYLQMNSLKPEDTAIYYCNAVWNTFISGRSYDYWGQGTQVTVSS	low polyreactivity
QVQLVESGGGLVQAGGSLRLSCAASGITFSRNARGGERQAPGQERELVATITSGGSTNYADSVKGRFTISRDNAKNTVYLQMNSLKPEDTAVFYCNAVWNTFISGRSYDYWGQGTQVTVSS	low polyreactivity
QVQLVESGGGLVQAGGSLRLSCAASGITFSRNVMGWSRQAPGKERELVAAISRSGGRTYYADSVKGRFTISRDNAMYTVYLQMNRLKPEDTAVYYCNRDIGGTSVLDDYWGQGNQVTVSS	low polyreactivity
